Experimental data taken from US12674174B2, “Protoporphyrinogen oxidase (PPO) resistance plant” (PLANTARC BIO LTD., priority 2022, dated 2026).

What was measured:
[1] = system: transgenic Arabidopsis plants; assay type: in vivo; settings: for level of resistance against Aurora (in words): Aurora 0.01% to 0.5%, compared to control plants; for level of resistance to Strike, more tolerant to treatment as compared to control plants: Strike 0.01% to 1%, 5 orders of magnitude
Source text: (SEQ ID NO: 8 was cloned from SEQ ID NO: 1, SEQ ID NO: 9 was cloned from SEQ ID NO: 2, SEQ ID NO: 10 was cloned from SEQ ID NO: 3, SEQ ID NO: 11 was cloned from SEQ ID NO: 4, SEQ ID NO: 12 was cloned from SEQ ID NO: 5, SEQ ID NO: 13 was cloned from SEQ ID NO: 6 SEQ ID NO: 14 was cloned from SEQ ID NO: 7). […] FIG. 1B summarizes the results of the three experiments described hereinabove.

Arabidopsis plants = settings: yes/no

B1: SEQ ID NO: 2: PPO from Aspergillus sp. Protein. (protein, listed as Aspergillus sp.)
chain: MRLPCASSRAFRQVRAPLALLHRGQRHAVHTKQFDAAVIGGGITGLTAAYQLSRDPSCSKVTLYEKSSHLGGWLSSEQIPVPGGHVVFEYGPRTLRTSSPSCLPMMDLIMNLDLLDDVLICDKKSPAAQNRYIYYPDHLVRLPFPPTEGLLKTAWTLLMEPLFETFLYSAIFEKPKRAENTHILSRDESVADFVSRRFSPKISENLASAVMAGIFAGDVNRLSAEMAIGYVRELEKRYGSIVDGMMTQRASEMRAMPMDELLALESVAVPSHSDDRYWKSLRAVVTDASVLTLKNGLGQLTDAMAAQLRSSRNVEVVTGTEVTSLSQNPKTQDLTIGFGKNESRTHNRVIATHAPSSLARQIQNTKVGVVPSDTIRDLGQNNYAVTVMVVNLYYEDPDLVPVEGFGYLLPSSVPFEQNPERALGVIFGSQSSEGQDTAPGTKLTVIMGGHLWDGWSESDYPDPDKAIEMAQALLHRHLGIKTAPSVARARLLRDAIPQYTVGHLSRMKELSHSVRSDFHKRLTLAGAWYGTVGIGVVDCIRQGYLASSYGVGSKKLGPGNSRRPWTKHDFHNWELEGGIATSPVRFDNVHVTERQHY
Q: What does the source list for B1?
A: level of resistance against Aurora (in words) [1]: very high levels of resistance; level of resistance to Strike, more tolerant to treatment as compared to control plants [1]: about 10^5; High concentration herbicide tolerance (Arabidopsis plants; Table 1): yes; Herbicide tolerance (Arabidopsis plants; Table 2, FIG. 6C legend: Star 1.25 kg/hectare): yes

B2: SEQ ID NO: 6: PPO from Rhizopus sp. Protein. (protein, listed as Rhizopus sp.)
chain: MSSVAILGGGISGLSAAYYLARMAPPTTKITLIEGKKRLGGWIESRRVTPGHYDNIHQLPKNNSKENTILFEAGPRTLRPEGSNGAILLEMIRHLELNNENLMSVSKSHPSARHRYIYYKDKINTLPSDLQSFLLNKPPVLKSVPLAALLEPLKPSRFDKDGIAKDGIQDESIYSFMTRRFNEHTAIHLMGAVIHGIYAGDIKSLSLQSTLRSLYEAERIYGSAVLGMMKGASQVTTSVRERGMAARSRKEDPEWFGRMEKMSVIGFKSGMDTLPHQITSWLEQCPNVEVITDDPAEHIEIAHENKIKTQKGKTVHADHIISTLPSPVLERLVQHQPVLPHLSYNPSADVAVVNLAYSPDEMKLQYDGFGFLTPHRDTPYGNPLPGTLGVVFDSNALPIESERAVKLTAMIGGSDWKDAFGNVPIDELEPKVALDYTRKAVGTFLDIHAEPRYSMVNLQKQCIPQYLVGHQDRMLSLHHAIKKNYGHALSVSGASYLGVSVPDCIKNSRMLVEELLVSGALGSRQKVVTGLGKLEEQPTVDEMRDNARLSRGNTSVIMKS
Q: B2 was tested. Which “level of resistance against Aurora (in words)” value [1] did it give?
A: very high levels of resistance

Q: What about the “level of resistance to Strike, more tolerant to treatment as compared to control plants” value [1] of the same molecule?
A: about 10^5
